From PMC10397247 come the findings set out here.

Holding throughout (assay): two-hybrid library CCmax;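 also: natural log of median RNA to DNA barcode read ratio; higher means stronger binding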
For one assay, the target named is T1, 4H3655-AA.
T1 chain: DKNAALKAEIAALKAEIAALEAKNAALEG
The conditions noted are these: mean of both orientations.

For another assay, the target named is T2, 4H48-AA.
T2 chain: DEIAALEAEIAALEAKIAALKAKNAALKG
As to conditions: mean of both orientations.

The target in a further assay is T3, 4H717-AA.
T3 chain: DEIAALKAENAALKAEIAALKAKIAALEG
The conditions noted are these: mean of both orientations.

The target in the next assay is T4, 4H605-AA.
T4 chain: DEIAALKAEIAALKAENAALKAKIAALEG
As to conditions: mean of both orientations.

Another assay concerns the target T5, 4H429-AA.
T5 chain: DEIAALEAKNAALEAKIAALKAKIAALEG
The conditions noted are these: mean of both orientations.

For another assay, the target named is T6, 4H3921-AA.
T6 chain: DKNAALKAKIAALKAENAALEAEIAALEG
The conditions noted are these: mean of both orientations.

Another assay concerns the target T7, 4H3427-AA.
T7 chain: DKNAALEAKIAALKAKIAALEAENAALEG
The conditions noted are these: mean of both orientations.

The target of the next assay is T8, 4H342-AA.
T8 chain: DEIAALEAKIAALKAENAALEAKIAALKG
The conditions noted are these: mean of both orientations.

For a further assay, the target named is T9, 4H454-AA.
T9 chain: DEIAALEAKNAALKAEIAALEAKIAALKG
As to conditions: mean of both orientations.

Another assay has as its target T10, 4H881-AA.
T10 chain: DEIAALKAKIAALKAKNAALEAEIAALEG
As to conditions: mean of both orientations.

For the next assay, the target named is T11, 4H3844-AA.
T11 chain: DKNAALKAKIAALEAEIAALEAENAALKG
The conditions noted are these: mean of both orientations.

Another assay addresses T12, 4H335-AA.
T12 chain: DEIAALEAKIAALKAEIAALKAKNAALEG

The next assay has as its target T13, 4H678-AA.
T13 chain: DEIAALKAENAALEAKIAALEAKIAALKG
The conditions noted are these: mean of both orientations.

The next assay deals with T14, 4H3343-AA.
T14 chain: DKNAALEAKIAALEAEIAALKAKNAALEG

The target of another assay is T15, 4H794-AA.
T15 chain: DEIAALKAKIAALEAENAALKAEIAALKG
The conditions noted are these: mean of both orientations.

The target in a further assay is T16, 4H993-AA.
T16 chain: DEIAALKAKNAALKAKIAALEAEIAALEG
As to conditions: mean of both orientations.

The next assay has as its target T17, 4H906-AA.
T17 chain: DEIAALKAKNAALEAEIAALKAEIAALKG
As to conditions: mean of both orientations.

The target of the next assay is T18, 4H566-AA.
T18 chain: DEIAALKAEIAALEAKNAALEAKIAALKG
The conditions noted are these: mean of both orientations.

Another assay has as its target T19, 4H3606-AA.
T19 chain: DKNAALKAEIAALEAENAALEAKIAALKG
The conditions noted are these: mean of both orientations.

Another assay addresses T20, 4H3627-AA.
T20 chain: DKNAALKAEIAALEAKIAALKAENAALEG
The conditions noted are these: mean of both orientations.

A further assay deals with T21, 4H780-AA.
T21 chain: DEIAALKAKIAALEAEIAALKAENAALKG
The conditions noted are these: mean of both orientations.

A further assay has as its target T22, 4H3865-AA.
T22 chain: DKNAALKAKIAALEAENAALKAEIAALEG
The conditions noted are these: mean of both orientations.

The target in another assay is T23, 4H3753-AA.
T23 chain: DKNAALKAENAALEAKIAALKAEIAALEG
The conditions noted are these: mean of both orientations.

The target of another assay is T24, 4H3697-AA.
T24 chain: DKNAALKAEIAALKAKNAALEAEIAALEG
As to conditions: mean of both orientations.

A further assay addresses T25, 4H745-AA.
T25 chain: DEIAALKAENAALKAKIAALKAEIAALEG
The conditions noted are these: mean of both orientations.

The next assay deals with T26, 4H710-AA.
T26 chain: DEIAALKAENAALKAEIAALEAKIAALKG
The conditions noted are these: mean of both orientations.

In the next assay the target is T27, 4H3410-AA.
T27 chain: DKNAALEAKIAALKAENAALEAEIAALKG
As to conditions: mean of both orientations.

Another assay concerns the target T28, 4H850-AA.
T28 chain: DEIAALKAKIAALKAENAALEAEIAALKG
The conditions noted are these: mean of both orientations.

A further assay deals with T29, 4H485-AA.
T29 chain: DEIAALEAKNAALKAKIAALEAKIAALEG
The conditions noted are these: mean of both orientations.

The target of another assay is T30, 4H570-AA.
T30 chain: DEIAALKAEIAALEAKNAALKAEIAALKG
The conditions noted are these: mean of both orientations.

In a further assay the target is T31, 4H909-AA.
T31 chain: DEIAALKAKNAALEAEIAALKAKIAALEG
The conditions noted are these: mean of both orientations.

For the next assay, the target named is T32, 4H458-AA.
T32 chain: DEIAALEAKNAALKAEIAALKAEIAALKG
As to conditions: mean of both orientations.

For a further assay, the target named is T33, 4H797-AA.
T33 chain: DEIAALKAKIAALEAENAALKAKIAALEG
The conditions noted are these: mean of both orientations.

Another assay addresses T34, 4H3165-AA.
T34 chain: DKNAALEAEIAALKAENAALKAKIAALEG

A further assay concerns the target T35, 4H536-AA.
T35 chain: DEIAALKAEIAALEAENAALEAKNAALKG
As to conditions: mean of both orientations.

The target of a further assay is T36, 4H3590-AA.
T36 chain: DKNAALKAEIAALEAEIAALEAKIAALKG
As to conditions: mean of both orientations.

The target in the next assay is T37, 4H94-AA.
T37 chain: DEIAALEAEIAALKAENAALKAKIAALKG
As to conditions: mean of both orientations.

The target in the next assay is T38, 4H930-AA.
T38 chain: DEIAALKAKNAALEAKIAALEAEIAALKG
As to conditions: mean of both orientations.

Another assay deals with T39, 4H629-AA.
T39 chain: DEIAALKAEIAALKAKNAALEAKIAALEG
The conditions noted are these: mean of both orientations.

The target of the next assay is T40, 4H891-AA.
T40 chain: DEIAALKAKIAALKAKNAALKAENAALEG
As to conditions: mean of both orientations.

In a further assay the target is T41, 4H3381-AA.
T41 chain: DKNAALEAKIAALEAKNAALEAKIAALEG
The conditions noted are these: mean of both orientations.

A further assay addresses T42, 4H3395-AA.
T42 chain: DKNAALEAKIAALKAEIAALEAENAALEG
As to conditions: mean of both orientations.

The next assay concerns the target T43, 4H317-AA.
T43 chain: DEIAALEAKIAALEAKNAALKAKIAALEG

Like-named read-outs stand apart in the source and are kept apart here.

Take DKNAALEAKIAALEAEIAALKAKNAALEG [4H3343-AA]: the interaction score with 4H3655-AA was -1.03; in the assay with 4H48-AA, -0.868; with 4H717-AA, -1.27; with 4H605-AA, -1.38; with 4H429-AA it was -1.22; with 4H3921-AA, -1.44. Moreover, the interaction score with 4H3427-AA was -0.88; in the assay with 4H342-AA, -1.13; with 4H454-AA, -0.866; in the assay with 4H881-AA, -1.72; in the assay with 4H3844-AA, 0.2; in the assay with 4H335-AA (mean of both orientations) it was 0.806. For the same molecule, the interaction score with 4H678-AA is -1.08; in the assay with 4H3343-AA, 1.37; with 4H794-AA, -1.33; with 4H993-AA, -1.4; with 4H906-AA, -1.17; in the assay with 4H566-AA, -1.55. Moreover, the interaction score in the assay with 4H3606-AA is -1.94; in the assay with 4H3627-AA, -0.363; with 4H780-AA it was -1.16.

Regarding DKNAALEAEIAALKAENAALKAKIAALEG [4H3165-AA], the interaction score is -0.353 with 4H3865-AA; -1.55 with 4H3753-AA; -0.699 with 4H3697-AA; -0.851 in the assay with 4H745-AA; -1.07 with 4H710-AA; -0.394 with 4H3410-AA. Also, the interaction score is -0.685 in the assay with 4H850-AA; -1.05 with 4H485-AA; -1.57 with 4H570-AA; -1.43 in the assay with 4H909-AA; -1.24 in the assay with 4H458-AA; -0.547 with 4H797-AA. Besides, the interaction score is 1.88 with 4H3165-AA; -1.27 with 4H536-AA; -0.944 with 4H3590-AA; 0.996 with 4H94-AA; -1.79 with 4H930-AA; -0.975 with 4H629-AA. Moreover, the values for the interaction score with 4H891-AA, with 4H3381-AA and in the assay with 4H3395-AA were -1.63, -1.72 and -1.37, respectively.

As for DEIAALEAKIAALEAKNAALKAKIAALEG [4H317-AA], the interaction score in the assay with 4H3655-AA was -0.949; in the assay with 4H48-AA, 0.228; with 4H717-AA, -1.63; with 4H605-AA, -0.441; with 4H429-AA, -0.459; with 4H3921-AA it was 1.81. The interaction score in the assay with 4H3427-AA was 1.23; in the assay with 4H342-AA, 2.15; in the assay with 4H454-AA it was -1.04; with 4H881-AA, 1.38; with 4H3844-AA, -0.686; with 4H335-AA (mean of both orientations) it was -0.361. Moreover, the interaction score with 4H678-AA is 0.755; with 4H317-AA, 1.28; with 4H3343-AA (mean of both orientations), -1.56; with 4H794-AA, 0.104; in the assay with 4H993-AA, -1.11; with 4H906-AA it was 0.51. Also, the interaction score was 1.74 with 4H566-AA, 2.23 with 4H3606-AA, -0.771 in the assay with 4H3627-AA and -1.52 with 4H780-AA.

On to DEIAALEAKIAALKAEIAALKAKNAALEG [4H335-AA], for which the interaction score was 0.662 with 4H3655-AA; -1.46 with 4H717-AA; -1.51 in the assay with 4H605-AA; -0.695 with 4H429-AA; -0.804 in the assay with 4H3921-AA; -0.982 with 4H3427-AA. Further, the interaction score with 4H342-AA is -0.154; with 4H454-AA it was 0.512; with 4H881-AA it was -1.54; in the assay with 4H3844-AA, 1.22; with 4H335-AA, 1.81; with 4H678-AA, -1.15. Further, the interaction score is -1.3 with 4H794-AA; -0.48 with 4H993-AA; -1.22 in the assay with 4H906-AA; -1.09 in the assay with 4H566-AA; 1.23 with 4H3627-AA; -0.326 with 4H780-AA.
